In US9493780B2, “Chloroplast transit peptide” (Dow AgroSciences LLC, priority 2012, dated 2016):
“Also recorded” adds a separate entry of the source.

Experiments:
[1] = system: T2 Arabidopsis; assay: T2 Arabidopsis events response to glyphosate applied postemergence, visual % injury; type: in vivo, Arabidopsis thaliana; conditions: T2 Arabidopsis single copy events
From the text: The second generation plants (T2) of selected T1 Arabidopsis events which contained low copy numbers of the dgt-28 transgene were further characterized for glyphosate tolerance. Glyphosate was applied as described previously. The response of the plants is presented in terms of % visual injury 2 weeks after treatment (WAT). […] An arithmetic mean and standard deviation are presented for each construct used for Arabidopsis transformation. The range in individual response is also indicated in the last column for each rate and transformation. Wild-type, non-transformed Arabidopsis (cv. Columbia) served as a glyphosate sensitive control. In the T2 generation hemizygous and homozygous plants were available for testing for each event and therefore were included for each rate of glyphosate tested. Hemizygous plants contain two different alleles at a locus as compared to homozygous plants which contain the same two alleles at a locus. Variability of response to glyphosate is expected in the T2 generation as a result of the difference in gene dosage for hemizygous as compared to homozygous plants. The variability in response to glyphosate is reflected in the standard deviation and range of response.

[2] = system: chloroplasts of the maize protoplast; assay: Maize protoplast transient assay of TraP14-GFP (microscopy); type: cell-based, Zea mays; conditions: TraP14-GFP fusion; microscopy after 12 hours of incubation
From the text: The Trap14v2 chimeric chloroplast transit peptide sequence (SEQ ID NO:8) were cloned upstream of the green fluorescent protein gene and incorporated into construct pDAB109902 (FIG. 4) for testing via the maize protoplast transient in planta assay. The resulting constructs contained a single plant transcription unit (PTU). The first PTU was comprised of the Zea mays Ubiquitin 1 promoter (ZmUbi1 promoter; Christensen, A., Sharrock R., and Quail P., (1992) Maize polyubiquitin genes: structure, thermal perturbation of expression and transcript splicing, and promoter activity following transfer to protoplasts by electroporation, Plant Molecular Biology, 18:675-689), TraP-green fluorescent protein fusion gene (TraP14-GFP; U.S. Pat. No. 7,678,893), and Zea mays Peroxidase 5 3′ untranslated region (ZmPer5 3′UTR; U.S. Pat. No. 6,384,207). The constructs were confirmed via restriction enzyme digestion and sequencing.
Seed of Zea mays var. B104 were surface sterilized by shaking vigorously in 50% Clorox (3% sodium hypochlorite), containing 2-3 drops of Tween 20, for about 20 minutes. […]
Transfection of 100 to 500 μl of protoplasts (1−5×10^5) was completed by adding the protoplasts to a 2 ml microfuge tube containing about 40 μg of plasmid DNA (pDAB106597), at room temperature. […] Fluorescence of GFP was viewed by microscopy after 12 hours of incubation. […]

Row | Molecule | tolerance to glyphosate [1] | translocation of GFP into chloroplasts [2]
1 | TraP5 v2: chloroplast transit peptide fused to dgt-28 (protein, Chloroplast Transit Peptide) MQLLNQRQALRLGRSSASKNQQVAPLASRPASSLSVSASSVAPAPACSAPAGAGRRAVVVRA | did not provide robust tolerance to glyphosate | –
2 | TraP14: chimeric chloroplast transit peptide (SEQ ID NO:3): N-terminus from Dunaliella salina GPDH, C-terminus from D. salina EPSPS (protein, chimeric TraP14 fusion protein) MILGSSPTLPHASHPARPGPARPISVNDVVPHVYSAPLSVARRSCSKSSIRSTRRLQTTVCS | – | accumulated within the chloroplasts; also recorded: successfully targeted GFP to maize chloroplasts
